B1: LINE1-full (parent)
chain: UACGUAGGUGGUUUUCCCCUGAUAGUGCUAAGGGGGCCUGGAAGUUUGGACUGGGCAGAGCUCAACACAGCGUGGCAAAGUGGCUGUGGCUAGACUGCCUCUCUGGAUUCCUCGUCACUCAGCAGGGCAUCUCUGAGAGAAAUGCC

Variants of: B1
Test: self-cleavage, relative activity (ratio to wild type); higher = more cleavage; in vitro, sequencing; the parent is a self-cleaving ribozyme

Going from U46C U130A to G36U A79G, the self-cleavage falls from 1.68 to 1.3.

First: U15G C118U
Second: A67G C113U
The self-cleavage of the first is higher: 0.97 for the first, 0.44 for the second.

First: A67C U87A
Second: U9C A94U
The self-cleavage of the first is lower: 0.05 for the first, 0.21 for the second.

First: A31G A121G
Second: U62A U134G
The self-cleavage of the first is higher: 1.24 for the first, 0.1 for the second.

Going from A94U U112C to C61U A67G, the self-cleavage rises from 0.37 to 1.08.

First: U109C A142C
Second: A6U U73C
The self-cleavage of the first is higher: 1.45 for the first, 1.21 for the second.

Going from A43U U104A to U45G U96C, the self-cleavage falls from 0.98 to 0.05.

Going from G21A U100C to C56G A67G, the self-cleavage falls from 1.72 to 0.

First: A138G A140G
Second: A69U U73C
The self-cleavage of the first is higher: 1.52 for the first, 0.05 for the second.

Going from U5G U112A to C38U C84G, the self-cleavage rises from 0 to 0.09.

Compared with U29A C51A, U115C A138G is higher in self-cleavage: 1.65 for the first, 1.79 for the second.

Going from A77C U102C to C18U U52A, the self-cleavage rises from 0 to 1.54.

Going from U9A U13C to U1A U109C, the self-cleavage rises from 0.81 to 1.05.

Going from C38A U109A to A69U G72A, the self-cleavage falls from 1.36 to 0.04.

First: U12C U115C
Second: U14A G72U
The self-cleavage of the first is lower: 1.21 for the first, 1.32 for the second.

Going from C18A U115G to A24U A64U, the self-cleavage falls from 0.99 to 0.35.

Going from U39A U62A to C19U C116U, the self-cleavage rises from 0.02 to 0.9.

Compared with A50U G144C, A6U A67G is lower in self-cleavage: 0.79 for the first, 0.49 for the second.

Compared with A50G A121U, U52C C101G is higher in self-cleavage: 0.48 for the first, 1.31 for the second.

First: U13G U104A
Second: A79G C98A
The self-cleavage of the first is higher: 1.39 for the first, 0.2 for the second.

Compared with U20C A138U, G97A A136G is lower in self-cleavage: 1.42 for the first, 0.19 for the second.

First: U104C C120U
Second: A6G A77G
The self-cleavage of the first is higher: 1.45 for the first, 1.18 for the second.

First: A129G G139A
Second: U1C C17U
The self-cleavage of the first is higher: 1.43 for the first, 0.87 for the second.

Compared with U46C U52A, U85C C90A is lower in self-cleavage: 1.45 for the first, 0.07 for the second.

Compared with A42G A117U, U39C U85C is lower in self-cleavage: 1.33 for the first, 0.18 for the second.

First: A65G G126A
Second: U45A A141U
The self-cleavage of the first is lower: 0.02 for the first, 1.01 for the second.

Compared with U87G C118U, C68U G74A is higher in self-cleavage: 0.17 for the first, 0.2 for the second.

First: A65G U87A
Second: A64U U91C
The self-cleavage of the first is lower: 0.06 for the first, 0.18 for the second.

Going from A24U C120U to U23C A124U, the self-cleavage rises from 0.79 to 1.22.

First: U26A G34U
Second: U13C A31U
The self-cleavage of the first is lower: 0.83 for the first, 1.1 for the second.

First: U20C G135A
Second: U46C U87C
The self-cleavage of the first is higher: 1.48 for the first, 0.43 for the second.

Compared with U143A, G4A U102C is lower in self-cleavage: 1.12 for the first, 0.82 for the second.

Going from A107G U108C to A22G G48U, the self-cleavage falls from 1.42 to 1.05.

Compared with U5G A59G, U15C G137U is higher in self-cleavage: 0.19 for the first, 1.26 for the second.

Compared with U52C A129G, U62A U109C is lower in self-cleavage: 1.23 for the first, 0.05 for the second.

Going from A77G U119A to U12C A121U, the self-cleavage falls from 2.04 to 1.11.

Going from U14C A92U to U12C U85C, the self-cleavage falls from 0.89 to 0.12.

Compared with A24U U45A, A64G G74A is lower in self-cleavage: 0.82 for the first, 0.12 for the second.

Going from U12G U52A to A6U U9C, the self-cleavage falls from 1.22 to 0.36.

Compared with A57U A140U, A2G U12G is higher in self-cleavage: 0.2 for the first, 0.95 for the second.

Compared with C28A A94G, G93A A141U is higher in self-cleavage: 0 for the first, 0.04 for the second.

Going from A30G C120U to U12C U52A, the self-cleavage falls from 1.53 to 1.41.

First: G80A G144A
Second: A57G A121G
The self-cleavage of the first is higher: 1.66 for the first, 1.07 for the second.

Going from A50C A107G to G32A A78U, the self-cleavage falls from 1.53 to 1.32.

First: A50G A129C
Second: U23C A78G
The self-cleavage of the first is lower: 0.75 for the first, 1.25 for the second.

First: U26G A142G
Second: C63U U96A
The self-cleavage of the first is higher: 1.28 for the first, 0.05 for the second.

Compared with C110U, U9C C145A is lower in self-cleavage: 1.51 for the first, 1.3 for the second.

First: U13C A117G
Second: A31C U39C
The self-cleavage of the first is lower: 1.02 for the first, 1.19 for the second.

Compared with G7U A107G, A67G A142G is lower in self-cleavage: 1.36 for the first, 0.46 for the second.

Going from A6G A94G to U1C A117U, the self-cleavage rises from 0.31 to 0.89.

First: A129C A140G
Second: U23C A42G
The self-cleavage of the first is higher: 1.67 for the first, 1.18 for the second.

First: U87C U96C
Second: A50U U143C
The self-cleavage of the first is lower: 0.27 for the first, 1.16 for the second.

Compared with A77U C84U, G7U G40A is higher in self-cleavage: 0.08 for the first, 1.47 for the second.

Going from U9A A42U to G40A A107G, the self-cleavage rises from 1.09 to 1.17.

Compared with G8A A67C, C18U U115C is higher in self-cleavage: 0 for the first, 1.49 for the second.

Compared with A69G U112C, A57U U132A is lower in self-cleavage: 0.52 for the first, 0.13 for the second.

First: A24G A124U
Second: U104A U115A
The self-cleavage of the first is higher: 1.54 for the first, 1.13 for the second.

Going from A117U U134C to C84U A94G, the self-cleavage falls from 1.52 to 0.04.

Compared with U47A G53A, U12G U132A is lower in self-cleavage: 1.23 for the first, 0.66 for the second.

Going from A42C U119C to A64U U73A, the self-cleavage rises from 0 to 0.21.

First: U52A A136G
Second: U81A U119A
The self-cleavage of the first is lower: 1.4 for the first, 2.53 for the second.

Going from A67G A77U to C61U G105A, the self-cleavage falls from 0.3 to 0.02.

First: U62C G126A
Second: U23A A138G
The self-cleavage of the first is lower: 0.04 for the first, 0.76 for the second.

Compared with A22U C68U, C98U U134C is higher in self-cleavage: 0.13 for the first, 0.3 for the second.

Compared with U73A A117C, U119A G122C is lower in self-cleavage: 1.99 for the first, 1.65 for the second.

Compared with U39C U100C, G40A U119A is lower in self-cleavage: 2.36 for the first, 0.94 for the second.

Going from A79U G137A to A2G A92C, the self-cleavage falls from 1.87 to 0.13.

Compared with A67G A117U, U91C A124G is lower in self-cleavage: 0.53 for the first, 0.33 for the second.

Compared with G25U U39A, U47A U143A is higher in self-cleavage: 0.31 for the first, 1.27 for the second.

Going from G97A to U46C U119C, the self-cleavage rises from 0.11 to 1.13.

First: U13A A64U
Second: C101U U119C
The self-cleavage of the first is lower: 0.25 for the first, 1.65 for the second.

Going from U73A C98U to U13C U39C, the self-cleavage rises from 0.32 to 1.08.

Going from U81A C103A to U26G U100C, the self-cleavage falls from 1.98 to 1.22.

Going from U15G A94U to G126C G137A, the self-cleavage rises from 0.58 to 1.45.

Going from G11A U62G to G54U A121G, the self-cleavage rises from 0.03 to 0.97.

Compared with U81C G86U, U102A U115A is higher in self-cleavage: 0.13 for the first, 1.43 for the second.

First: G53U C99U
Second: U96A G126A
The self-cleavage of the first is higher: 0.13 for the first, 0.07 for the second.

First: C38A U108A
Second: A59C A117G
The self-cleavage of the first is lower: 1.01 for the first, 2.7 for the second.

Going from A50G A136U to U23C A43G, the self-cleavage falls from 1.15 to 1.11.

Going from A121G G126A to U102G A140G, the self-cleavage falls from 1.24 to 0.39.

First: U47G U52A
Second: C38U A64G
The self-cleavage of the first is higher: 1.18 for the first, 0.17 for the second.

First: U13A U109C
Second: U23A U130C
The self-cleavage of the first is lower: 1.17 for the first, 1.44 for the second.

First: C71A U134A
Second: U39C U109A
The self-cleavage of the first is lower: 0.18 for the first, 1.15 for the second.

A124U G127A gave a self-cleavage of 0.9.

— the RNAGym collection of RNA variant scans (doi:10.7554/elife.90254)
